Biological target: T1, CD81 (UniProt P60033)
T1 sequence (looked up): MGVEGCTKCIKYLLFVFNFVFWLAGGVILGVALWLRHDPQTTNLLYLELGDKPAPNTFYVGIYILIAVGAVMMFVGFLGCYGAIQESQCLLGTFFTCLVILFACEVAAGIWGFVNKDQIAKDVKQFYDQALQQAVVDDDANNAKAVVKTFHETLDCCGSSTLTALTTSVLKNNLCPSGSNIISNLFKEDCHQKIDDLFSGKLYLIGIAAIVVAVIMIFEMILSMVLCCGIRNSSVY
Assay: cell ELISA

B1: CD81K04 HC GG-05-hVH_1_18 / LC JA_GG-10-hVK_4_1 (antibody, V domains shown)
VH: QVQLVQSGAEVKKPGASVKVSCKASGYTFSSSWMNWVRQAPGQGLEWMGRIYSGDGDAIYAQKLQGRVTMTTDTSTSTAYMELRSLRSDDTAVYYCAREGKTGDLLLRSWGQGTLVTVSS
VL: DIVMTQSPDSLAVSLGERATINCRASKSVSTSIYSYMHWYQQKPGQPPKLLIKYASYLESGVPDRFSGSGSGTDFTLTISSLQAEDVAVYYCEHSREFPFTFGQGTKLEIK
B1 was tested, and the ELISA absorbance was 0.841.

B2: CD81K04 HC JA_GG-14-hVH_1_69 / LC GG-04-hVK_4_1 (antibody, V domains shown)
VH: QVQLVQSGAEVKKPGSSVKVSCKASGYTFSSSWMNWVRQAPGQGLEWMGRIYSGDGDAIYNGKFKGKATITADESTSTAYMELSSLRSEDTAVYYCAREGKTGDLLLRSWGQGTLVTVSS
VL: DIVMTQSPDSLAVSLGERATINCKSSKSVSTSIYSYLAWYQQKPGQPPKLLIYYASTRESGVPDRFSGSGSGTDFTLTISSLQAEDVAVYYCQHSREFPYTFGQGTKLEIK
Work on B2 yielded an ELISA absorbance of 0.107.

B3: CD81K04 HC JA_GG-14-hVH_1_69 / LC JA_GG-07-hVK_7_3 (antibody, V domains shown)
VH: QVQLVQSGAEVKKPGSSVKVSCKASGYTFSSSWMNWVRQAPGQGLEWMGRIYSGDGDAIYNGKFKGKATITADESTSTAYMELSSLRSEDTAVYYCAREGKTGDLLLRSWGQGTLVTVSS
VL: DIVLTQSPASLAVSPGQRATITCRASKSVSTSIYSYMHWYQQKPGQPPKLLIKYASNKDTGVPARFSGSGSGTDFTLTINPVEANDAANYYCLHSREFPYTFGQGTKLEIK
Binder B3 has an ELISA absorbance of 0.107.

B4: CD81K13 HC 04-hVH_1_69 / LC 05-hVK_1_39 (antibody, V domains shown)
VH: EVQLVESGGGLVQPGRSLRLSCTASGFNFKDSYLHWVRQAPGQGLEWMGRIDTGNGNVKFDPKFQGRVTITADESTSTAYMELSSLRSEDTAVYYCVPYGYGFHSWGQGTLVTVSS
VL: DIQMTQSPSSLSASVGDRVTITCRASENIYRTLAWYQQKPGKAPKLLIYAATTLASGVPSRFSGSGSGTDFTLTISSLQPEDFATYYCQHFWGTPWTFGQGTKVEIK
With B4 the ELISA absorbance was 0.776.

B5: CD81K13 HC 04-hVH_1_69 / LC 06-hVK_1_39 (antibody, V domains shown)
VH: EVQLVESGGGLVQPGRSLRLSCTASGFNFKDSYLHWVRQAPGQGLEWMGRIDTGNGNVKFDPKFQGRVTITADESTSTAYMELSSLRSEDTAVYYCVPYGYGFHSWGQGTLVTVSS
VL: DIQMTQSPSSLSASVGDRVTITCRASENIYRTLAWYQQKPGKAPKLLIYAATTLASGVPSRFSGSGSGTDFTLTISSLQPEDFGTYYCQHFWGTPWTFGQGTKVEIK
Binder B5 has an ELISA absorbance of 0.386.

B6: CD81K13 HC 04-hVH_1_69 / LC 5b-hVK_1_39-GA (antibody, V domains shown)
VH: EVQLVESGGGLVQPGRSLRLSCTASGFNFKDSYLHWVRQAPGQGLEWMGRIDTGNGNVKFDPKFQGRVTITADESTSTAYMELSSLRSEDTAVYYCVPYGYGFHSWGQGTLVTVSS
VL: DIQMTQSPSSLSASVGDRVTITCRASENIYRTLAWYQQKPGKAPKLLIYGATTLADGVPSRFSGSGSGTDFTLTISSLQPEDFATYYCQHFWGTPWTFGQGTKVEIK
In the case of B6, the ELISA absorbance is reported as 0.403.

B7: CD81K13 HC 04-hVH_1_69 / LC 07-hVK_1_27 (antibody, V domains shown)
VH: EVQLVESGGGLVQPGRSLRLSCTASGFNFKDSYLHWVRQAPGQGLEWMGRIDTGNGNVKFDPKFQGRVTITADESTSTAYMELSSLRSEDTAVYYCVPYGYGFHSWGQGTLVTVSS
VL: DIQMTQSPSSLSASVGDRVTITCRASENIYRTLAWYQQKPGKVPKLLIYAATTLASGVPSRFSGSGSGTDFTLTISSLQPEDVGTYYCQKFWGTPWTFGQGTKVEIK
For B7, the ELISA absorbance was 0.085.

B8: CD81K13 HC 04-hVH_1_69 / LC 5b-hVK_1_39 (antibody, V domains shown)
VH: EVQLVESGGGLVQPGRSLRLSCTASGFNFKDSYLHWVRQAPGQGLEWMGRIDTGNGNVKFDPKFQGRVTITADESTSTAYMELSSLRSEDTAVYYCVPYGYGFHSWGQGTLVTVSS
VL: DIQMTQSPSSLSASVGDRVTITCRASENIYRTLAWYQQKPGKAPKLLIYGATTLADGVPSRFSGSGSGTDFTLTISSLQPEDFATYYCQHFWGTPWTFGQGTKVEIK
In the case of B8, the ELISA absorbance is reported as 0.428.

Reference: patent US20170204182A1
